In article PMC10691697, “A small molecule exerts selective antiviral activity by targeting the human cytomegalovirus nuclear egress complex” (PLOS Pathogens, 2023):

Experiments:
Test in all cases: AlphaScreen or HTRF
[1] = biological target: His-tagged HCMV UL50 (residues 1-169) C35N (human cytomegalovirus (HCMV)) (UniProt P16791)
[2] = biological target: His-tagged HCMV UL50 (residues 1-169) C54S (human cytomegalovirus (HCMV)) (UniProt P16791)
[3] = biological target: His-tagged HCMV UL50 (residues 1-169) C79S (human cytomegalovirus (HCMV)) (UniProt P16791)
[4] = biological target: T1, Myc-tagged HCMV UL53 (residues 50-292) with glycine-serine linker (human cytomegalovirus (HCMV), UniProt P16794 50-292); settings: both partners purified
T1 construct: source: E. coli BL21 (DE3) RIPL, purified (glutathione-agarose, on-column PreScission digestion, size exclusion chromatography); not shown: GST, N-terminal, cleaved; Myc, N-terminal, kept
T1 sequence: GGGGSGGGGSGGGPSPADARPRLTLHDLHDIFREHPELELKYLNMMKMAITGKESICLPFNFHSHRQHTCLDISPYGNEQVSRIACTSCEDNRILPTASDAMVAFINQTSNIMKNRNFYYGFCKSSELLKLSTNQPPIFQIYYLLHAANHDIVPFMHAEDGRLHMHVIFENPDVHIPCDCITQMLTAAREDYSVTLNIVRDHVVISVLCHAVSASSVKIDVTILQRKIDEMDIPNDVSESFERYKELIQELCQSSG

Myc-tagged HCMV UL53 (residues 50-292) with glycine-serine linker (from UniProt P16794 50-292) (domain or fragment)
Kd [1]: 0.15 µM | Kd [2]: 0.24 µM | Kd [3]: 0.34 µM

B1: His-tagged HCMV UL50 (residues 1-169) (domain or fragment)
chain: MEMNKVLHQDLVQATRRILKLGPSELRVTDAGLICKNPNYSVCDAMLKTDTVYCVEYLLSYWESRTDHVPCFIFKNTGCAVSLCCFVRAPVKLVSPARHVGEFNVLKVNESLIVTLKDIEEIKPSAYGVLTKCVVRKSNSASVFNIELIAFGPENEGEYENLLRELYAK
notes: also called His-UL50; source: E. coli BL21 (DE3) RIPL, purified (nickel Sepharose, size exclusion chromatography); not shown: His, N-terminal, kept
Kd [4]: 0.3 µM
